We go through 7 sequences from the DeepSol protein solubility set.

This series can be described thus: soluble on expression in E. coli; label from the status in PepcDB or PDB records.
On to “MSRLEIYSPEGLRLDGRRWNELRRFESSINTHPHAADGSSYMEQGNNKIITLVKGPKEPRLKSQMDTSKALLNVSVNINKFSKFERSKSSHKNERRVLEIQTSLVRMFEKNVMLNIYPRTVIDIEIHVLEQDGGIMGSLINGITLALIDAGISMFDYISGISVGLYDTTPLLDTNSLEENAMSTVTLGVVGKSEKLSLLLVEDKIPLDRLENVLAIGIAGAHRVRDLMDEELRKHAQKRVSNASAR”, for which the “soluble on expression in E. coli” value was “soluble”.
As for “MSLRKRIIEVSTDYKILIVDDEEGIINSMKVMLTRSGYFCMGISNPLEAIETLKKEHFDMLILDYIMSPIHGDEVVAKIREFNKDIYILLLTGHKDLAPPLETIKALDIQGYCEKGDKFDQLLLLIESGIKSISQMRTIRQFKDGLNRILQAVPKIYQLQPIGVILEEILQGLMPLVNSKDAFILVDDCNSGEGKIIFKGVGEYDIKAESLVTMLSPELMENIGRARDSKKVLLLDHGIILPLTNEQNKSIGVIYIESSNLGDGIKLLEIYSTQAASSINNAFLHSLINMKKEELDRTYQELRKRYIDTIEALRLTVDAKDIYTRGHSDRVAYYAVKLGEAFGLPEDQLELLKVGGIFHDIGKIGTADDILFKTDKLSYDEYEEIKKHPLKGAYILSAISMFKDVVPLVKYHHERIDGKGYPEGLKGDEIPFLARILTVADAFDAMMSDRKYRSKLSLEETKEQFRLYSGTQFDPQVVEKLFEILENYDLMLEELSKTFTEGHHHHHH”, the “soluble on expression in E. coli” value is listed as “soluble”.
With “MARNPEEAQRVVIPLGSEEALAFLGQADRNLKRLRSLFRTYLGDEVRLVSRGEQVEVLGPPEAVEKAERALRDLLALLRQGAELDEATLEQAVRLAAEGEGLYQATEPELELQLPGRLRPKTPGQKRYVEAIARHDITFGIGPAGTGKTYLAVAMAVSHLRARRVKRIILTRPAVEAGEKLGFLPGDIQAKVDPYLRPLYDALFDMIDAERFEQYLQSGIIEVAPLAFMRGRTLNDAFIILDEAQNTTPEQMKMFLTRMGFSSKMVITGDVTQIDLPKHQRSGLVEAIRILKGIEGIAFVHFKESDVVRHPLVARIIKAYEEAERGGGGAQ” the entry was “soluble”; with “MSLSEGPKKAGVLGSPIAHSRSPQLHLAAYRALGLHDWTYERIECGAAELPVVVGGFGPEWVGVSVTMPGKFAALRFADERTARADLVGSANTLVRTPHGWRADNTDIDGVAGALGAAAGHALVLGSGGTAPAAVVGLAELGVTDITVVARNSDKAARLVDLGTRVGVATRFCAFDSGGLADAVAAAEVLVSTIPAEVAAGYAGTLAAIPVLLDAIYDPWPTPLAAAVGSAGGRVISGLQMLLHQAFAQVEQFTGLPAPREAMTCALAALDEGHHHHHH”, “soluble”; with “MAHHHHHHMKKQIKWKAHKGVVLCADWSRMSGMIVTGGEDGVYKVWDPYGCSIFVAAAGEHPITSVRFAADGESFAVGSFMNVRVCDKTGWSHSYERTTEGSAMALDWMPDGTQMILGNGTGALSIAQIVDRKVSWGPYTVTLLDSRRLTVQDVVKDTVQEIELADKVIKLELGCGYLVVCTTTQCCCYPMDRLNAPVQFDLRDPVISIILGPRQFLLADCSQGLQVYSYEGRQISVLRLQVTLKPEIMTTNLLSLSPETVAMRNPADAKRILFFDVSSGKPFDAASVAHHLDIVSVHLSQSGSLHDRKIAFIDRNNDLYFGPVHTQLGFHKLSTMTTSVAWHDSHETLVAIADGHLATWYYPSTIFTDRDLLSLTKTVRDGGHTEFTRNDRITHFHHTRVLVRRGGDGALLTLPVSPYTVMIFQLVTQKNNWDGATRLARFLKDPLLWAVLTALALRAGELNVAEIGYGALSDLAKVRYIHYIKGIPTPEARQAELALFQHRPAEAERILLQAGLVYRCIDMNTRLFKWERALEIAKERKTHLDTVLGRRERYLQEVSQKEMLAPFKDLSGKVKVDWAVIEEKVKQEVIKESERPNAKPYA”, “not soluble”.
Next, “MITVFHSDKLTRQPFFQDLINYLDQHDHVILREIKKAFPNVTGIDKAIESYVQAGYIRRENKRYGINLPLVSSDQQLALDTMLFVDTCSAMYENILAVVFETQLTNQTNRVMIKEKTNITRDDLTLANYFYRLKRGEKPSAEQMDLYDLLGDVNQEYALKYMTTFLLKFTRKDFVMQKRPDIFVEALVTLGYLKQVEPTTYQLLMTLDKESLTFIAP”: “not soluble”; “MSLKMFEVPVSSVSISINSALLKGCRKFMVLGYGEIGKLAIKHLLSHKVECIYLIVRDKSKASDLEGEIVEVLDFNEKNQVINEIDCIVSCTAAPHTVVRNEDIKTEGETIHIYDLAVPRDVDKELSEKERVILKDIDEISKIDDKNKKIRKERMEEYKHIVEESIDEFLNWLKIREVSSKIRNIKIREGHHHHHH”: “not soluble”.
